Assay results taken from IntAct's records for PubMed 18022368.

B1: MAD2L1-binding protein (Homo sapiens), Q15013 (parent)
chain: MAAPEAEVLSSAAVPDLEWYEKSEETHASQIELLETSSTQEPLNASEAFCPRDCMVPVVFPGPVSQEGCCQFTCELLKHIMYQRQQLPLPYEQLKHFYRKPSPQAEEMLKKKPRATTEVSSRKCQQALAELESVLSHLEDFFARTLVPRVLILLGGNALSPKEFYELDLSLLAPYSVDQSLSTAACLRRLFRAIFMADAFSELQAPPLMGTVVMAQGHRNCGEDWFRPKLNYRVPSRGHKLTVTLSCGRPSIRTTAWEDYIWFQAPVTFKGFRE

Variants of: B1
Conditions: with md2l1_human MAD2L1, Q13257
md2l1_human MAD2L1, Q13257, sequence (Q13257 whole entry): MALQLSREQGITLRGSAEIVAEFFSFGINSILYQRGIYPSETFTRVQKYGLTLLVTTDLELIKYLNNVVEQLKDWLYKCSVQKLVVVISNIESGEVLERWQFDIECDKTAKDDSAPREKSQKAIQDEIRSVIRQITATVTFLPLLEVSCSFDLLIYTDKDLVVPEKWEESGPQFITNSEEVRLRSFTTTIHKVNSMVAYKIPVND

Effect of a mutation on the interaction, decreasing interaction:
MAAPEAEVLSSAAVPDLEWYEKSEETHASQIELLETSSTQEPLNASEAFCPRDCMVPVVFPGPVSQEGCCQFTCELLKHIMYARQQLPLPYEQLKHFYRKPSPQAEEMLKKKPRATTEVSSRKCQQALAELESVLSHLEDFFARTLVPRVLILLGGNALSPKEFYELDLSLLAPYSVDQSLSTAACLRRLARAIFMADAFSELQAPPLMGTVVMAQGHRNCGEDWFRPKLNYRVPSRGHKLTVTLSCGRPSIRTTAWEDYIWFQAPVTFKGFRE [Q83A;F191A]
MAAPEAEVLSSAAVPDLEWYEKSEETHASQIELLETSSTQEPLNASEAFCPRDCMVPVVFPGPVSQEGCCQFTCELLKHIMYARQQLPLPYEQLKHFYRKPSPQAEEMLKKKPRATTEVSSRKCQQALAELESVLSHLEDFFARTLVPRVLILLGGNALSPKEFYELDLSLLAPYSVDQSLSTAACLRRLFRAIFMADAFSELQAPPLMGTVVMAQGHRNCGEDWFRPKLNYRVPSRGHKLTVTLSCGRPSIRTTAWEDYIWFQAPVTFKGFRE [Q83A]
MAAPEAEVLSSAAVPDLEWYEKSEETHASQIELLETSSTQEPLNASEAFCPRDCMVPVVFPGPVSQEGCCQFTCELLKHIMYQRQQLPLPYEQLKHFYRKPSPQAEEMLKKKPRATTEVSSRKCQQALAELESVLSHLEDFFARTLVPRVLILLGGNALSPKEFYELDLSLLAPYSVDQSLSTAACLRRLARAIFMADAFSELQAPPLMGTVVMAQGHRNCGEDWFRPKLNYRVPSRGHKLTVTLSCGRPSIRTTAWEDYIWFQAPVTFKGFRE [F191A]
